In article PMC9382030 (Current biology : CB, 2022):

Target: T1, phosphatidylinositol 4-phosphate 5-kinase type-1 gamma (PIP5K1C) (human, UniProt O60331 1-668)
T1 construct: PIP5K1C, human; also called PIPK1 gamma 90; source: Sf9, baculovirus, purified (amylose resin, HRV-3C cleavage, SEC); not shown: His6, N-terminal, cleaved; MBP, N-terminal, cleaved
Assay: pull-down; purified GST, GST-Arf6-T27N or GST-Arf6-Q67L bound to GSH agarose as bait; purified PIP5K1C 400 nM as prey, 1 h at 4 °C; 20 mM HEPES, 250 mM NaCl, 0.5 mM TCEP; SDS-PAGE and Coomassie staining
Settings: both partners purified

T1 sequence (O60331 whole entry): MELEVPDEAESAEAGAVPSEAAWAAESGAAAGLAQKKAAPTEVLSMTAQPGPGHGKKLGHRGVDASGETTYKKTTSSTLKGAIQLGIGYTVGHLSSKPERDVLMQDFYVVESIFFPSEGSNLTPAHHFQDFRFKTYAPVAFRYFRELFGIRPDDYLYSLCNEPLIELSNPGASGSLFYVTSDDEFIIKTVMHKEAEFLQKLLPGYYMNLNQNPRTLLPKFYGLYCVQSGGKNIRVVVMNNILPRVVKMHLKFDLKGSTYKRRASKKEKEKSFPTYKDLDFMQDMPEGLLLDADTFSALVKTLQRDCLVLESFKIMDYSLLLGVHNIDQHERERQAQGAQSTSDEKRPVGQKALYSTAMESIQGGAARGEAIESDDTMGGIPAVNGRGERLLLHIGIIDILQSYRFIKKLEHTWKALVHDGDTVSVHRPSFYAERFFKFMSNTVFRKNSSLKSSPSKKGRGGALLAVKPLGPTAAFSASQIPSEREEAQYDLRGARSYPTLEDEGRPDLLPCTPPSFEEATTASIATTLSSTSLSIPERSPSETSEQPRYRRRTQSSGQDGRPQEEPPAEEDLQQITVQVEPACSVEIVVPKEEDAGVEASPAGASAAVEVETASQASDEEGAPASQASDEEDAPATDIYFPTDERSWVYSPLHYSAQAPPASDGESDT

- binding result: binds
B1: GST-Arf6-Q67L (natural protein, human, UniProt P62330 1-175, looked up)
chain: MGKVLSKIFGNKEMRILMLGLDAAGKTTILYKLKLGQSVTTIPTVGFNVETVTYKNVKFNVWDVGGLDKIRPLWRHYYTGTQGLIFVVDCADRDRIDEARQELHRIINDREMRDAIILIFANKQDLPDAMKPHEIQEKLGLTRIRDRNWYVQPSCATSGDGLYEGLTWLTSNYKS
notes: Arf6, human; pGEX-6P-1 Arf6-Q67L; In the phosphoinositide conversion assay an N-terminal 6xHis form (pOCC3) was used instead; also called constitutively active Arf6; source: E. coli BL21, purified (GSH agarose, SEC); not shown: GST, N-terminal, kept
